Experiment [1] concerns the target recombinant purified neutrophil adhesion inhibitor NIF (rNIF) of the hookworm Ancylostoma caninum (Ancylostoma caninum). In words: flow cytometry on cells.
Experiment [2] shares this target. Kind of experiment: ELISA.

Consider “recombinant CD11b A-domain (r11bA), wild type (domain or fragment)”, for which the IC50 in experiment [1] and in experiment [2] was 1 nM throughout.
